Measurements: patent US20220348617A1

Columns and labels:
[1] = target: Notch1 on the fluorescent Notch1 reporter cell line (CHO^N1); assay: cell-based or functional assay
[2] = target: Notch 3 EGF domains 5-12 (human) (UniProt Q9UM47); assay: SPR; details: ligand
[3] = target: Notch1 EGF domains 6-13 (human) (UniProt P46531); assay: SPR; details: ligand
[4] = target: Notch2 EGF domains 6-13 (human) (UniProt Q04721); assay: SPR; details: ligand
[5] = target: Notch 3 EGF domains 5-12 (human) (UniProt Q9UM47); assay: SPR; N-EGF3; details: ligand
[6] = target: Notch1 EGF domains 6-13 (human) (UniProt P46531); assay: SPR; N-EGF3; details: ligand
[7] = target: Notch2 EGF domains 6-13 (human) (UniProt Q04721); assay: SPR; N-EGF3; details: ligand

Sequence of Notch2 EGF domains 6-13 (human) (Q04721 221-530): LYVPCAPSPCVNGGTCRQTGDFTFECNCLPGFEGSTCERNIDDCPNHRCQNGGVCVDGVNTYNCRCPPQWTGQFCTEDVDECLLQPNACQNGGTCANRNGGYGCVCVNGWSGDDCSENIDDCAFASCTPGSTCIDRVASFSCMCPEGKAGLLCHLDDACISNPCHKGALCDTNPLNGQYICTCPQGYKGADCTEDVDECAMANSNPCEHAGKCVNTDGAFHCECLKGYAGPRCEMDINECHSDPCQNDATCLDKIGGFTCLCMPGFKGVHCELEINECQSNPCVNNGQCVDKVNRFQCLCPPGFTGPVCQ
Sequence of Notch 3 EGF domains 5-12 (human) (Q9UM47 197-505): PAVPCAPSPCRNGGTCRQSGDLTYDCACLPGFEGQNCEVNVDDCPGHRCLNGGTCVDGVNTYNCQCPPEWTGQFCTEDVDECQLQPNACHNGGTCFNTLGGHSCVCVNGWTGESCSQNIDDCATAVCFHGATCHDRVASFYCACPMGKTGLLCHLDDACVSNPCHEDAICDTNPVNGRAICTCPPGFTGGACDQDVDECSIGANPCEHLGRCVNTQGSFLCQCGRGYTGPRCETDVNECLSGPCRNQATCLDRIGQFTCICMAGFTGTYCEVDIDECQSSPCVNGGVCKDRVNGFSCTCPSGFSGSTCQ
Sequence of Notch1 EGF domains 6-13 (human) (P46531 218-526): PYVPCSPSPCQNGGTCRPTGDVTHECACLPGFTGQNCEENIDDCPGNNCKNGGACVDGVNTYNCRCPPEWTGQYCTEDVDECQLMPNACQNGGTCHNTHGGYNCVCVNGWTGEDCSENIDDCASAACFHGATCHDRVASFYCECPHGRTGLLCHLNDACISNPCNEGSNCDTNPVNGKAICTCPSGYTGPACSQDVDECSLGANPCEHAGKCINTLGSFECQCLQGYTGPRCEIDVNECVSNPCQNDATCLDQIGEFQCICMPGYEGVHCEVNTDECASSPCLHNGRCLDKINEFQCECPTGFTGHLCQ

Notch1 activation (fluorescent Notch1 reporter cells, co-culture) [1] [%]	Kd [2] [nM]	Kd [3] [nM]	Kd [4] [nM]	Kd [5] [nM]	Kd [6] [nM]	Kd [7] [nM]	Substance
100	–	–	–	–	–	–	wild-type human DLL4 expressed on 293T cells (from UniProt Q9NR61 27-685) (ligand)
–	470	450	750	122	103	244	E12 human DLL4 (from UniProt Q9NR61 27-322)
–	7.2	4.2	15.3	–	–	–	N3a.8_E12 human DLL4 (from UniProt Q9NR61 27-322)
–	4.7	2	7.4	–	–	–	N3a.5_E12 human DLL4 (from UniProt Q9NR61 27-322)
